Assay results published in paper PMC11135836.

Test system: T1, RstA (Escherichia coli LF82 (adherent-invasive)?), ORF:9fe818c8
T1 sequence: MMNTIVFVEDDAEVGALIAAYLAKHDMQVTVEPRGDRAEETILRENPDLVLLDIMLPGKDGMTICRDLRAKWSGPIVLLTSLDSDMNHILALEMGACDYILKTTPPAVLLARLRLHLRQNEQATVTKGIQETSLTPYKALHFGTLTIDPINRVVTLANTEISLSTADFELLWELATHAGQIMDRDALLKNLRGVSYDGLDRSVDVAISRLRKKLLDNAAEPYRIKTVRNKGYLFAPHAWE
Test: EMSA
Conditions: EMSA: 40 ng PCR fragment, 0-2 uM RstA, 20 uL; 1 mM Tris-HCl pH 7.5, 0.2 mM DTT, 5 mM MgCl2, 10 mM KCl, 10% glycerol, 30 mM acetyl phosphate; 25 C 30 min …

Sequence	binding
CAAGCAAAAGCCTGGTTCCGCCGATTTATCGCTGCGGCAAATAACGCAGCGGGTTTACGGATTTCCCCTTGTAACGAATTTCAAAATGCAAGCGTGTTGAACTGGTTCCGGTGCTACCCATGGTTGCTATTTTTTGCCCCGCCTTCACTTCTTGTTGTTCCCGGACCAGCATTGTGTCGTTATGGGCGTAGG (double strand) [rpoS promoter (negative control)]	no binding
ATGACGAAAGGACTACAGCGAAATATTTTTTATATGCATTATTAGTAAGTTAGCACCATTTGTATGATTTTTTAAAATTGTGCAATAAAAACCAAATGTACAACTTTTCTATCATTTATAAACTTAATAAAACCTTAAGGTTAACATTTTAATATAACGAGTTGCATTTAGTTACATGTTTAACACTTGATTTAAGATTTGTAATGGCTAGATTGAAATCAGATGTAATCCATTAGTTTTATATTTTACCCATTTAGGGCTGATTTATTACTACACACA (double strand) [csgD promoter]	binds
TGCGCAGTTATTCTACCGCTTTGTAAGTAGTAAAATAGTTAACACGATCAAGACTACTATTATTGGTAGCTAAATTTTCCTTAAGTCACAATACGTTATTATCAATGCTGTAATTTATTCAGCGTTTGTACATATCGTTACACGCTGAAACCAACCACTCACGGAAGTCTGCCATTCC (double strand) [asr promoter]	binds
